Data taken from US20260184778A1 (REGENECORE BIOTECH, published 2026).

Legend:
Test in all cases: cell-based or functional assay
[1] = target: IL-5 (human, UniProt P05113 20-134)
[2] = target: T1, IL-4Rα (human, UniProt P24394 26-232, limits assumed)
[3] = target: T1, IL-4Rα; remark: listed apart in the source

Sequence of IL-5 (P05113 20-134 limits assumed): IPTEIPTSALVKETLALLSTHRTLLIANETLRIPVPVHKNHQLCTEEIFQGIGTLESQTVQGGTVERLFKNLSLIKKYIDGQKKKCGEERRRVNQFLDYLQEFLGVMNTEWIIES

Molecule: hIgG (antibody)
- EC50 (nM), neutralizing IL-5-induced TF-1 cell proliferation (control) [1]: 0.108 nM

B1: dupilumab (Tab made by the applicant) (antibody, V domains shown)
VH: EVQLVESGGGLEQPGGSLRLSCAGSGFTFRDYAMTWVRQAPGKGLEWVSSISGSGGNTYYADSVKGRFTISRDNSKNTLYLQMNSLRAEDTAVYYCAKDRLSITIRPRYYGLDVWGQGTTVTVSS
VL: DIVMTQSPLSLPVTPGEPASISCRSSQSLLYSIGYNYLDWYLQKSGQSPQLLIYLGSNRASGVPDRFSGSGSGTDFTLKISRVEAEDVGFYYCMQALQTPYTFGQGTKLEIKR
- EC50 (nM), neutralizing IL-4-induced TF-1 proliferation [2]: 0.13 nM
- EC50(nM), neutralizing IL-13-induced TF-1 proliferation [3]: 0.178 nM

B2: reslizumab (Tab made by the applicant) (antibody, V domains shown)
VH: EVQLVESGGGLVQPGGSLRLSCAVSGLSLTSNSVNWIRQAPGKGLEWVGLIWSNGDTDYNSAIKSRFTISRDTSKSTVYLQMNSLRAEDTAVYYCAREYYGYFDYWGQGTLVTVSS
VL: DIQMTQSPSSLSASVGDRVTITCLASEGISSYLAWYQQKPGKAPKLLIYGANSLQTGVPSRFSGSGSATDYTLTISSLQPEDFATYYCQQSYKFPNTFGQGTKVEVK
- EC50 (nM), neutralizing IL-5-induced TF-1 cell proliferation [1]: 0.122 nM
